Laboratory results as given in paper PMC3831237.

Key:
[1] = target: 2,5-DHP dioxygenase Hpo from Pseudomonas putida S16 (non-His6-tagged) (Pseudomonas putida S16); test: SEC + native gel or EMSA
purified protein = substrate: O=CNC(=O)/C=C/C(=O)O; test: purified protein; conditions: 20 mM sodium phosphate pH 6.7, 25 °C

Molecule | stoichiometry N [1] | Km (purified protein) | kcat (purified protein)
2,5-DHP dioxygenase Hpo from Pseudomonas putida S16 (non-His6-tagged) (enzyme) | 3 |  | 
Nfo (Pseudomonas putida S16) (protein) MKGYNVYANGIRQHIIHFPGTGSPLLLIPGITSPAVTWGFVAERLAKYFDVHVVDVRGRGLSESGDLDYSLDAMADDLVALAQRMEGVVVLGHSMGARIAIRAARKDSQVFSRLILVDPPVSGPGRRPYPAKWSWYAESIRLAQRGCTAMEMRSYCPTWTDEQIELRAEWLHTCQYTAVKTAFDGFHTDDIHTDLAQLTLPIQLVVAGGAEVIQPDDIAEIISLAPQTTTYVVEEAGHMIPWDNLEGFITAVSNR |  | 5.83 ± 0.46 mM | 2.4 ± 0.1 s⁻¹
